Test results as given in patent EP4725968A1 (Salubris (Chengdu) Biotech Co., Ltd., dated 2024).

T1: GPC3-B peptide
T1 peptide: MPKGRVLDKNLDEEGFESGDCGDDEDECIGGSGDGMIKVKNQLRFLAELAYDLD

T2: GPC3-A peptide
T2 construct: Peptide of the GPC3 antigen
T2 peptide: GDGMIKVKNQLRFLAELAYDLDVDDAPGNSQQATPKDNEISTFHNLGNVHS

T3: GPC3-B3 (human)
T3 construct: Overlapping peptide of GPC3-B
T3 peptide: DKNLDEEGFESG

T4: GPC3-B8
T4 construct: also called long fragments containing GPC3-B3
T4 peptide: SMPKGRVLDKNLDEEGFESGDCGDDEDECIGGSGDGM


Assays:
[1] = target: T1, GPC3-B peptide; assay: ELISA, peptide coated at 6 µg/mL
[2] = target: T2, GPC3-A peptide; assay: ELISA, peptide coated at 6 µg/mL
[3] = target: T5, Mouse GPC3 (ACRO Biosystems, GP3-M52H3) (mouse, UniProt Q8CFZ4 25-558); assay: ELISA, GPC3 protein coated at 6 µg/mL; × indicates no affinity recognition
T5 construct: also called mouse Gpc3 protein; mouse GPC3 protein
T5 sequence (Q8CFZ4 25-558 limits assumed): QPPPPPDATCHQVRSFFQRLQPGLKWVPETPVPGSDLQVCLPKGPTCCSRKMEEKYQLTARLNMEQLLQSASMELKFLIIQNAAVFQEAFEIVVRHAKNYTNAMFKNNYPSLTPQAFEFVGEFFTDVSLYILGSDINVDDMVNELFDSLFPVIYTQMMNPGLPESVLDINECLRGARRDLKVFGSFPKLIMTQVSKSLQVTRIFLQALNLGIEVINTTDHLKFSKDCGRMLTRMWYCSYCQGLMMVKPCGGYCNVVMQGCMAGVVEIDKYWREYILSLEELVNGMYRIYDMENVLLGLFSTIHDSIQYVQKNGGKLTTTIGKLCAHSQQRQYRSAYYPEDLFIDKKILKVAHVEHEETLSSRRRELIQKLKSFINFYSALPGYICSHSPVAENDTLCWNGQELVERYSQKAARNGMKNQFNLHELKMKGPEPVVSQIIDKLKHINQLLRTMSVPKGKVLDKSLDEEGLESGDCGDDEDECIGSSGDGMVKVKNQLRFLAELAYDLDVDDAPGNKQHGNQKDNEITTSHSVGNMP

[4] = target: T3, GPC3-B3; assay: ELISA, overlapping peptide coated at 6 µg/mL
[5] = target: T4, GPC3-B8; assay: ELISA, overlapping peptide coated at 6 µg/mL

| Binder | binding result [1] | other results |
| --- | --- | --- |
| GC067 (antibody, V domains shown, Detected with anti-human IgG-Fc-HRP) VH: EVQLLESGGGVVQPGRSLRLSCAASGFTFSSYAMHWVRQAPGKGLEWVAVISYDGSNKYYADSVKGRFTISRDNSKNTLYLQMNSLRAEDTAVYYCARRLRGSGMDVWGQGTPVTVSS VL: not shown | binds | – |
| GC035 (antibody, V domains shown, Detected with anti-human IgG-Fc-HRP) VH: EVQLLESGGGVVRPGRSLRLSCAASGFTFSSYAMHWVRQAPGKGLEWVAVISYDGSNKYYADSVKGRFTISRDNSKNTLYLQMNSLRAEDTAVYYCARRKSGSSFDYWGQGTPVTVSS VL: DIQLTQSPSSLSASVGDRVTITCRAGQTINNYLHWYQQKPGKAPKLLIFAASSLQSGVPSRFSGSGSGTDFTLTISSLQPEDFATYYCQQSYSPPLTFGGGTRVEIK | binds | – |
| GC025 (antibody, V domains shown, Detected with anti-human IgG-Fc-HRP) VH: EVQLLESGGGVVQPGRSLRLSCAASGFTFSSYAMHWVRQAPGKGLEWVAVISYDGSNKYYADSVKGRFTISRDNSKNTLYLQMNSLRAEDTAVYYCARRQRAAIDYWGQGTTVTVSS VL: DIQLTQSPSSLSASVGDRVTITCRASQSISSYLSWYQQKPGKAPKLLIYGASSLQSGVPSRFSGSGSGTDFTLTISSLQPEDFATYSCQQSYSTQFTFGPGTKVDIK | binds | – |
| hYP7HM (antibody, human IgG1, kappa, L234A L235A, V domains shown, Control anti-GPC3 antibody; also called control antibody hYP7HM; control anti-GPC3 antibody hYP7HM) VH: EVQLVESGGGLVQPGGSLRLSCAASGFTFNKNAMNWVRQAPGKGLEWVGRIRNKTNNYATYYADSVKGRFTISRDDSKNSLYLQMNSLKTEDTAVYYCVAGNSFAYWGQGTLVTVSA VL: not shown | – | binding result [2]: binds |
| GC139 (antibody, V domains shown, Detected with anti-human IgG-Fc-HRP) VH: EVQLVESGGGLIQPGGSLRLSCAASGFTFSSYAMHWVRQAPGKGLEYVSAISSNGGSTYYADSVKGRFTISRDNSKNTLYLQMSSLRPDDTAVYYCVRGWIRPPPGSFDLWGQGTTVTVSS VL: not shown | binds | – |
| GC037 (antibody, V domains shown, Detected with anti-human IgG-Fc-HRP) VH: EVQLLESGGGLVQPGGSLRLSCAASGFTFSSYAMHWVRQAPGKGLEYVSAISSNGGSTYYANSVKGRFTISRHPSKNILFLEMNSLRPDDTAVYYCVRGWIRPPPGSFDLWGQGTPVTVSS VL: AIRLTQFPSSLSASVGDRVTITCRARQSIDNYLNWYQEKPGKAPKLLIYAASSLQSGVPSRFSGSGSGTEFTLTISSLQPDDFAAYYCQQSYDSPPTFGQGTKVEIK | binds | – |
| GC008 (antibody, V domains shown, Detected with anti-human IgG-Fc-HRP in the ELISA, so it carried a human Fc) VH: EVQLLESGGGLVQPGGSMRLSCAASEIDFSVYALGWSRQAPGKQRELVATITTSSTTTYADSVKGRFTISRDNAKNTVYLQMNSLKPEDTAVYYCHTLRRTGSGIVPGRIWGQGTPVTVSS VL: DIQLTQSPSSLSASVGDRVTITCQASQDIDNSVTWYQQRPGKAPSLLISDASILESGVPSRFSGRGSGTHFTLSITSLQPEDIATYYCQQYENLPITFGQGTRLEIK | binds | – |

Now from value to binder, other results behind:

| binding result [1] | Binder | other results |
| --- | --- | --- |
| binds | GC010 (antibody, V domains shown, Detected with anti-human IgG-Fc-HRP) VH: EVQLLESGGGVVQPGRSLRLSCAASGFTFSSYAMHWVRQAPGKGLEWVAVISYDGSNKYYADSVKGRFTISRDNSKNTLYLQMNSLRAEDTAVYYCARDESRRKFDYWGQGTTVTVSS VL: not shown | – |
| binds | GC053 (antibody, V domains shown, Detected with anti-human IgG-Fc-HRP) VH: EVQLLESGGGLVQPGGSLRLSCAASGFTFSSYAMHWVRQAPGKGLEYVSAISSNGGSTYYANSVKGRFTISRDNSKNTLYLQMGSLRPDDTAVYYCVRGWIRPPPGSFDLWGQGTTVTVSS VL: NIQMTQSPSSLSAFVGDRVTITCRASQSISRYLNWYQHKPGQAPKLLMYAASTLQDEVPSRFSGSGSGTYFTLTISSLEPEDFATYYCQQSYSTPPTFGGGTKVEIK | – |
| binds | GC147 (antibody, V domains shown, Detected with anti-human IgG-Fc-HRP) VH: EVQLVESGGGLVQPGGSLRLSCAASGFTFSSYAMHWVRQAPGKGLEYVSAISSNGGSTYYANSVKGRFTISRDNSKNTLYLQMGSLRAEDMAVYYCVRGWIRPPPGSFDLWGQGTPVTVSS VL: AIRLTQSPSSLSASVGDRVSITCRASQSISTFLNWYQQKPGKAPNLLIYSASTLQSGVPSRFSGSGSGTDFTLTISSLQPEDFATYYCQQSYSSPPTFGQGTKLEIK | – |
| binds | GC90 (antibody, V domains shown, Human IgG1 / kappa; also called GC90 monoclonal antibody; humanized monoclonal antibody GC90) VH: QVQLLESGGGLVQPGGSLRVSCAASGFTFNSYAMSWVRQAPGKGLEWVASIKSSGDRVQYADSVKGRFTISRDNSKNTVYLEMNSLRAEDTAIYYCAKPQWSSPQRTFEVWGQGTPVTVSS VL: not shown | binding result [3]: no binding (tested: 30 nM); binding result [4]: binds; binding result [5]: binds |
| binds | GC011 (antibody, V domains shown, Detected with anti-human IgG-Fc-HRP) VH: EVQLLESGGGVVQPGRSLRLSCAASGFTFSSYGMHWVRQAPGKGLEWVAVISYDGSNKYYADSVKGRFTISRDNSKNTLYLQMNSLRAEDTAVYYCAKNPSLDYWGQGTTVTVSS VL: NIQMTQSPSSLSASVGDRVTITCRASQSITRYLNWYQQKPGKGPKLLIYAASRLQSGVPSRFSGSGSGTDFTLTISSLQPEDFATYYCQQSHSIPRTFGQGTKLEIK | – |
